In publication PMC7152990, “Plasmon-Emitter Hybrid Nanostructures of Gold Nanorod-Quantum Dots with Regulated Energy Transfer as a Universal Nano-Sensor for One-Step Biomarker Detection”:

Molecular target: T1, alpha fetoprotein (AFP) (human, UniProt P02771 19-609)
T1 sequence: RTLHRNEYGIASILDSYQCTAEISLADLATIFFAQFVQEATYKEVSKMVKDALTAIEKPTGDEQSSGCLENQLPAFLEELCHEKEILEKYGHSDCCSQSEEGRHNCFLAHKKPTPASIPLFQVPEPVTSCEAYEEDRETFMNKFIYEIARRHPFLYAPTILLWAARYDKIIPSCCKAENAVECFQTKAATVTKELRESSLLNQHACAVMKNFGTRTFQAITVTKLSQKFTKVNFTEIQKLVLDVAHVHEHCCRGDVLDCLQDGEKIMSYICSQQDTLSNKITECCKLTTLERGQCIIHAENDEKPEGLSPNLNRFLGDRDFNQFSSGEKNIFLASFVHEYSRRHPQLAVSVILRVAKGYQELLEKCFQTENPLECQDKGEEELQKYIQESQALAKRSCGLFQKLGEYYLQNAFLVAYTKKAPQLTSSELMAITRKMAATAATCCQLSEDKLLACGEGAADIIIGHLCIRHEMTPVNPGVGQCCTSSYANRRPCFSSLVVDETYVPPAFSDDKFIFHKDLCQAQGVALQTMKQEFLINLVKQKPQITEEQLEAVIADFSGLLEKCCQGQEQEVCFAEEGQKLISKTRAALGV
Experiment: plasmon-regulated FRET / LSPR shift aptasensor (Au NR-QDs); 20 ng/mL AFP; LSPR redshift 1.2 nm, fluorescence decrease ~18%; sensor LOD 0.30 ng/mL (not a Kd); aptamer immobilized on Au NR-QDs via glutaraldehyde (room temperature, 2 h, water); AFP binding buffer, pH and temperature not given in the material
Details: protein: commercial

B1: AFP aptamer (ssDNA)
DNA: GTGACGCTCCTAACGCTGACTCAGGTGCAGTTCTCGACTCGGTCTTGATGTGGGTCCTGTCCGTCCGAACCAATC
modifications: 5'-NH2
Does B1 bind?
Result: binds
